Conditions: Helicobacter pylori (strain ATCC 700392 / 26695), 25.2 °C, Urea, whole UniProt chain shown
[1] = pH 2, CD, Sodium phosphate 23 mM
[2] = pH 2, Fluorescence, Sodium phosphate 23 mM
[3] = pH 5, Fluorescence, Sodium acetate 16 mM

B1: Flavodoxin wild type, O25776 (protein)
chain: MGKIGIFFGTDSGNAEAIAEKISKAIGNAEVVDVAKASKEQFNSFTKVILVAPTAGAGDLQTDWEDFLGTLEASDFATKTIGLVGLGDQDTYSETFAEGIFHIYEKAKAGKVVGQTPTDGYHFEASKAVEGGKFVGLVIDEDNQDDLTDERISKWVEQVKGSFA
With B1 the denaturant m value [1] was 1.28 kcal/mol/M, the “denaturant midpoint (higher = more stable)” value (from here on “denaturant midpoint”) [1] was 0.89 M and the unfolding free energy [1] was 1.14 kcal/mol. For the same protein, the denaturant m value [2] was 1.35 kcal/mol/M, the “denaturant midpoint” value [2] was 0.84 M and the unfolding free energy [2] was 1.13 kcal/mol. For the same protein, the denaturant m value (pH 5, CD, Sodium acetate 16 mM) was 2.24 kcal/mol/M, the “denaturant midpoint” value (pH 5, CD, Sodium acetate 16 mM) was 4.1 M and the unfolding free energy (pH 5, CD, Sodium acetate 16 mM) was 9.2 kcal/mol. The denaturant m value [3] was 2.32 kcal/mol/M, the “denaturant midpoint” value [3] was 4.04 M and the unfolding free energy [3] was 9.37 kcal/mol. For the same protein, the denaturant m value (pH 7, CD, MOPS 30 mM) was 2.11 kcal/mol/M, the “denaturant midpoint” value (pH 7, CD, MOPS 30 mM) was 2.94 M and the unfolding free energy (pH 7, CD, MOPS 30 mM) was 6.2 kcal/mol. The denaturant m value (pH 7, Fluorescence, MOPS 30 mM) was 2.18 kcal/mol/M, the “denaturant midpoint” value (pH 7, Fluorescence, MOPS 30 mM) was 3.01 M and the unfolding free energy (pH 7, Fluorescence, MOPS 30 mM) was 6.56 kcal/mol. The denaturant m value (pH 9, CD, CHES 35 mM) was 2.19 kcal/mol/M, the “denaturant midpoint” value (pH 9, CD, CHES 35 mM) was 2.16 M and the unfolding free energy (pH 9, CD, CHES 35 mM) was 4.73 kcal/mol. The denaturant m value (pH 9, Fluorescence, CHES 35 mM) was 2.03 kcal/mol/M, the “denaturant midpoint” value (pH 9, Fluorescence, CHES 35 mM) was 2.21 M and the unfolding free energy (pH 9, Fluorescence, CHES 35 mM) was 4.5 kcal/mol.

— FireProtDB (doi:10.1074/jbc.m705677200)
